According to article PMC10284912, “Molecular choreography of primer synthesis by the eukaryotic Pol α-primase” (Nature Communications, 2023):

T1: S. cerevisiae DNA polymerase catalytic subunit Pol1 (S. cerevisiae, UniProt P13382 1-1468)
T1 construct: DNA polymerase alpha catalytic subunit Pol1, S. cerevisiae, aa 1-1468 (Pol1-NTD aa 1-348, Pol1-core aa 349-1259, Pol1-CTD aa 1260-1468); intact complex without truncations; also called DNA polymerase 1; p180
T1 sequence (looked up): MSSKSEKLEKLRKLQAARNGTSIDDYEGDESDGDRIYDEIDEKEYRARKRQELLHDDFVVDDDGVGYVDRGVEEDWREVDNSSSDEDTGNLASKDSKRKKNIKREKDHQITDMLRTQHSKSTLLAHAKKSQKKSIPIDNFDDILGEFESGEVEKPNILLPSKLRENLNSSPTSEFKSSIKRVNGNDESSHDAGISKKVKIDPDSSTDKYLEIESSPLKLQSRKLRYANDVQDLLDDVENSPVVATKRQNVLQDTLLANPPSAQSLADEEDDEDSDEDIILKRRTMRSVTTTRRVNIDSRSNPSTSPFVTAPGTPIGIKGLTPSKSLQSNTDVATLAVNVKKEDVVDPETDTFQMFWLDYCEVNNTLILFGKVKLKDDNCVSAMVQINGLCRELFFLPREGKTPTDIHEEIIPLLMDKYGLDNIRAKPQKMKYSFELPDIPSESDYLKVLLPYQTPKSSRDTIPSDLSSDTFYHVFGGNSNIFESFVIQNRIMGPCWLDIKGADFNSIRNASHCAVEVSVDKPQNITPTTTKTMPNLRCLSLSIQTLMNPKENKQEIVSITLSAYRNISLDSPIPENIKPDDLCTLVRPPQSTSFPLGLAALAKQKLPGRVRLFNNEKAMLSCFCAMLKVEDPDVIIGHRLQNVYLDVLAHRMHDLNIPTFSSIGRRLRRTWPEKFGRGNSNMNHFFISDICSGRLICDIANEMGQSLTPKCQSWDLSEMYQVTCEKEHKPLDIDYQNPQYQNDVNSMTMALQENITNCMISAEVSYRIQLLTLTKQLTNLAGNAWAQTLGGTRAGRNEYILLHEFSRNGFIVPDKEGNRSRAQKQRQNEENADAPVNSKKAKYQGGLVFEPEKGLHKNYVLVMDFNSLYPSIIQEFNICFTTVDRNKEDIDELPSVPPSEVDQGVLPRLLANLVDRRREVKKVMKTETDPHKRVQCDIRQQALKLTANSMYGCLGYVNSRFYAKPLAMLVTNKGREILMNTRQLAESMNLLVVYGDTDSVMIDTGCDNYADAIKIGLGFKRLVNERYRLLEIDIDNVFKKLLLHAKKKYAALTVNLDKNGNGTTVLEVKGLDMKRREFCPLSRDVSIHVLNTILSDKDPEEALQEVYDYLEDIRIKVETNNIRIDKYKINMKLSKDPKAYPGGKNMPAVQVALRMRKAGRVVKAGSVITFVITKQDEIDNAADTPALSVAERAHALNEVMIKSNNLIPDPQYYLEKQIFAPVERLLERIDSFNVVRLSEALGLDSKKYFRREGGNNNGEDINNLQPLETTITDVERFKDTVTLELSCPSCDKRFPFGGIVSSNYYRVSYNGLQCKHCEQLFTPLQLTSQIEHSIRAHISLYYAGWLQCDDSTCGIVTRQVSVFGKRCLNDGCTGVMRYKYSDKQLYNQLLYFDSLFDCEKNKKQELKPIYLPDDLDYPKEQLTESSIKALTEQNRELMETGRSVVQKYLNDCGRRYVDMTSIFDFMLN

B1: S. cerevisiae regulatory subunit primase 2 (Pri2) (natural protein, UniProt P20457 1-528, looked up)
chain: MFRQSKRRIASRKNFSSYDDIVKSELDVGNTNAANQIILSSSSSEEEKKLYARLYESKLSFYDLPPQGEITLEQFEIWAIDRLKILLEIESCLSRNKSIKEIETIIKPQFQKLLPFNTESLEDRKKDYYSHFILRLCFCRSKELREKFVRAETFLFKIRFNMLTSTDQTKFVQSLDLPLLQFISNEEKAELSHQLYQTVSASLQFQLNLNEEHQRKQYFQQEKFIKLPFENVIELVGNRLVFLKDGYAYLPQFQQLNLLSNEFASKLNQELIKTYQYLPRLNEDDRLLPILNHLSSGYTIADFNQQKANQFSENVDDEINAQSVWSEEISSNYPLCIKNLMEGLKKNHHLRYYGRQQLSLFLKGIGLSADEALKFWSEAFTRNGNMTMEKFNKEYRYSFRHNYGLEGNRINYKPWDCHTILSKPRPGRGDYHGCPFRDWSHERLSAELRSMKLTQAQIISVLDSCQKGEYTIACTKVFEMTHNSASADLEIGEQTHIAHPNLYFERSRQLQKKQQKLEKEKLFNNGNH
notes: DNA primase large (regulatory) subunit Pri2, S. cerevisiae (Pri2-NTD, 20-residue linker, Pri2-CTD with a 4Fe-4S cluster); intact complex without truncations; also called p58; PriL

What was measured:
[1] = target: T1, S. cerevisiae DNA polymerase catalytic …; test: cryo-EM structure; purified yeast Pol α-primase alone (apo state, conformers I and II, 3.7 and 3.8 Å); ~1 mg/ml; 50 mM HEPES pH 7.5, 50 mM KGlu, 200 mM KAcetate, 1 mM DTT, 4 mM MgCl2; conditions: both partners purified
[2] = target: B1; test: as above; conditions: both partners purified

binding result [1] | binding result [2] | Binder
binds | – | S. cerevisiae polymerase accessory subunit Pol12 (natural protein, UniProt P38121 1-705, looked up, intact complex without truncations; also called p70; B-subunit) MSGSIDVITHFGPDADKPEIITALENLTKLHALSVEDLYIKWEQFSNQRRQTHTDLTSKNIDEFKQFLQLQMEKRANQISSSSKVNTSTKKPVIKKSLNSSPLFGLSIPKTPTLKKRKLHGPFSLSDSKQTYNVGSEAETNEKGNSSLKLEFTPGMAEDAVGDSAPLSHAKSSDAKTPGSSTFQTPTTNTPTTSRQNVPAGEILDSLNPENIEISSGNPNVGLLSTEEPSYNQVKVEPFYDAKKYKFRTMRQNLQEASDVLDDQIESFTKIIQNHYKLSPNDFADPTIQSQSEIYAVGRIVPDSPTYDKFLNPESLSLETSRMGGVGRRVRLDLSQVNELSFFLGQIVAFKGKNANGDYFTVNSILPLPYPNSPVSTSQELQEFQANLEGSSLKVIVTCGPYFANDNFSLELLQEFIDSINNEVKPHVLIMFGPFIDITHPLIASGKLPNFPQFKTQPKTLDELFLKLFTPILKTISPHIQTVLIPSTKDAISNHAAYPQASLIRKALQLPKRNFKCMANPSSFQINEIYFGCSNVDTFKDLKEVIKGGTTSSRYRLDRVSEHILQQRRYYPIFPGSIRTRIKPKDVSTKKETNDMESKEEKVYEHISGADLDVSYLGLTEFVGGFSPDIMIIPSELQHFARVVQNVVVINPGRFIRATGNRGSYAQITVQCPDLEDGKLTLVEGEEPVYLHNVWKRARVDLIAS
binds | – | B1
binds | binds | S. cerevisiae catalytic primase 1 (Pri1) (natural protein, UniProt P10363 1-409, looked up, DNA primase small (catalytic) subunit Pri1, S. cerevisiae; intact complex without truncations; also called p49; PriS) MTNSVKTNGPSSSDMEYYYKSLYPFKHIFNWLNHSPKPSRDMINREFAMAFRSGAYKRYNSFNSVQDFKAQIEKANPDRFEIGAIYNKPPRERDTLLKSELKALEKELVFDIDMDDYDAFRTCCSGAQVCSKCWKFISLAMKITNTALREDFGYKDFIWVFSGRRGAHCWVSDKRARALTDVQRRNVLDYVNVIRDRNTDKRLALKRPYHPHLARSLEQLKPFFVSIMLEEQNPWEDDQHAIQTLLPALYDKQLIDSLKKYWLDNPRRSSKEKWNDIDQIATSLFKGPKQDSHIIKLRECKEDLVLMTLYPKLDVEVTKQTIHLLKAPFCIHPATGNVCVPIDESFAPEKAPKLIDLQTEMEKNNDVSLTALQPFINQFQAYVSSLLKNELGSVKREREDDDEPASLDF
